# Data taken from EP1452542A2 (Novartis AG, dated 2004).
# Residue numbers refer to the chain shown, from its start.
# B1: reshaped human C21 antibody C21-H3/L1 (antibody, V domains shown)
# VH: QVQLVQSGAEVKKPGASVKVSCKASGYTFSMYWLEWVRQAPGHGLEWVGEISPGTFTTNYNEKFKARATFTADTSTNTAYMELSSLRSEDTAVYYCARFSHFSGSNYDYFDYWGQGTLVTVSS
# VL: DILLTQSPGTLSLSPGERATLSCRASQSIGTNIHWYQQKPGQAPRLLIKYASESISGIPSRFSGSGSGTDFTLTISRLEPEDFAMYYCQQSDSWPTTFGQGTKVEIK
# B2: reshaped human C21 antibody C21-Hay3/L1 (antibody, V domains shown)
# VH: B1 VH with H43Q, G44R, V48M, T76A, N77S
# VL: B1 VL
# B3: reshaped human C21 antibody C21-H1/L2 (antibody, V domains shown)
# VH: B1 VH with R38K, A40R, R67K, R87T
# VL: B1 VL with S60D
# notes: C21-L2 is C21-L1 with aspartic acid instead of serine at position 60
# B4: reshaped human C21 antibody C21-Hay3/L2 (antibody, V domains shown)
# VH: B1 VH with H43Q, G44R, V48M, T76A, N77S
# VL: B1 VL with S60D
# B5: reshaped human C21 antibody C21-H3/L2 (antibody, V domains shown)
# VH: B1 VH
# VL: B1 VL with S60D
# B6: reshaped human C21 antibody C21-H1/L1 (antibody, V domains shown)
# VH: B1 VH with R38K, A40R, R67K, R87T
# VL: B1 VL
# B7: reshaped human C21 antibody C21-H3/L3 (antibody, V domains shown)
# VH: B1 VH
# VL: B1 VL with D1E, L3V
# B8: reshaped human C21 antibody C21-H1/L3 (antibody, V domains shown)
# VH: B1 VH with R38K, A40R, R67K, R87T
# VL: B1 VL with D1E, L3V
# notes: C21-L3 is C21-L1 with Glu instead of Asp at position 1 and Val instead of Leu at position 3
# B9: reshaped human C21 antibody C21-Hay3/L3 (antibody, V domains shown)
# VH: B1 VH with H43Q, G44R, V48M, T76A, N77S
# VL: B1 VL with D1E, L3V
# Target: T1, human IgE; monoclonal antibody SE44 (human, UniProt P01854-1 1-428)
# T1 construct: domain: human e constant region; also called IgE (SE44); human monoclonal IgE (SE44)
# Assay: BIAcore SPR, Kaff from kass and kdiss
row,Binder,Ka [M⁻¹]
1,B1,1.32e+10
2,B2,6.1e+09
3,B3,4.9e+09
4,B4,8.1e+09
5,B5,5.7e+09
6,B6,8.7e+09
7,B7,7.4e+09
8,B8,4.7e+09
9,B9,1.6e+09

# Target: T1, human IgE; monoclonal antibody SE44
# Assay: BIAcore SPR, antibody captured via anti-human IgG, IgE SE44 3.125-25 nM in flow, 25°C
row,Binder,kon [M⁻¹ s⁻¹]
1,B1,250000
2,B2,250000
3,B3,280000
4,B4,250000
5,B5,250000
6,B6,260000
7,B7,260000
8,B8,290000
9,B9,260000

# Target: T1, human IgE; monoclonal antibody SE44
# Assay: BIAcore SPR, antibody captured via anti-human IgG, IgE SE44 25 nM, dissociation in HBS, 25°C
row,Binder,koff [s⁻¹]
1,B1,1.9e-05
2,B2,4.1e-05
3,B3,5.7e-05
4,B4,3.1e-05
5,B5,4.4e-05
6,B6,3e-05
7,B7,3.5e-05
8,B8,6.2e-05
9,B9,0.000159
